According to patent US20240376185A1 (SMIVET B V, published 2024):
Where two headings read alike, the source gives them in different places.

Columns and labels:
human serum albumin [1] = biological target: T1, human serum albumin (human, UniProt P02768 25-609); assay: ELISA, coated albumin
T1 construct: mature; also called human Alb

sheep serum albumin = biological target: T2, sheep serum albumin (sheep, UniProt P14639 25-607); assay: ELISA, coated albumin
T2 construct: mature; also called sheep Alb

bovine serum albumin = biological target: T3, bovine serum albumin (bovine, UniProt P02769 25-607); assay: ELISA, coated albumin
T3 construct: mature; also called bovine Alb

chicken ovalbumin [2] = biological target: T4, chicken ovalbumin (chicken, UniProt P01012 2-386); assay: ELISA, coated albumin
T4 construct: mature; also called chicken Alb
T4 sequence (looked up): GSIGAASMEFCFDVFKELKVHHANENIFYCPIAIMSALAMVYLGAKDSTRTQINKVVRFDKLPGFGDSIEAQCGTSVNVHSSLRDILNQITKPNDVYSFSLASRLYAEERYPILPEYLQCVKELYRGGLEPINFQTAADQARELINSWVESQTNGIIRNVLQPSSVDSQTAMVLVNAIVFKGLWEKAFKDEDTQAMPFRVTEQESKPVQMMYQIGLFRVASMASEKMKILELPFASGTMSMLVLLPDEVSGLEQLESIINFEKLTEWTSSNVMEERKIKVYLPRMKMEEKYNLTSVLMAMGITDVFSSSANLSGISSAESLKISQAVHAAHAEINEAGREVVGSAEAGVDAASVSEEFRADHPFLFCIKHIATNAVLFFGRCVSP

mouse albumin [3] = biological target: T5, mouse albumin (mouse, UniProt P07724 25-608); assay: ELISA on coated albumin
T5 sequence (P07724 25-608 limits assumed): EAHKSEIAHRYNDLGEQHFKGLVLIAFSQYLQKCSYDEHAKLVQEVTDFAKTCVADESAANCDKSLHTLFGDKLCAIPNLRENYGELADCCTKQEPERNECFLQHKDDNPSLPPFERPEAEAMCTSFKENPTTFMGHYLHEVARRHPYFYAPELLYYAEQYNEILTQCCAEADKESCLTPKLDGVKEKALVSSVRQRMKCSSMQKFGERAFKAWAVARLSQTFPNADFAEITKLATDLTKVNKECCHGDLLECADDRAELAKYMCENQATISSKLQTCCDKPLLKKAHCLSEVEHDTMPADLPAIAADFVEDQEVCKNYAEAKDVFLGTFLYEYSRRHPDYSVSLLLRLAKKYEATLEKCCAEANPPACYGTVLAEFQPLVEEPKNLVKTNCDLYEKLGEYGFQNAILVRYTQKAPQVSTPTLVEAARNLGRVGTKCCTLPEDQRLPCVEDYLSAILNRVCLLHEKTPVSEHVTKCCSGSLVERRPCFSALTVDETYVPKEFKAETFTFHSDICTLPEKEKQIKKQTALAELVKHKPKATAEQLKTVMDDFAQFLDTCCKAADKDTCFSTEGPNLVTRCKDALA

swine albumin [4] = biological target: T6, swine albumin (swine, UniProt P08835 25-607); assay: ELISA on coated albumin
T6 construct: also called Porcine albumin

human albumin [5] = biological target: T7, human albumin (human, UniProt P02768 25-609); assay: ELISA on coated albumin
sheep albumin [6] = biological target: T8, sheep albumin (sheep, UniProt P14639 25-607); assay: ELISA on coated albumin
T8 sequence (P14639 25-607 limits assumed): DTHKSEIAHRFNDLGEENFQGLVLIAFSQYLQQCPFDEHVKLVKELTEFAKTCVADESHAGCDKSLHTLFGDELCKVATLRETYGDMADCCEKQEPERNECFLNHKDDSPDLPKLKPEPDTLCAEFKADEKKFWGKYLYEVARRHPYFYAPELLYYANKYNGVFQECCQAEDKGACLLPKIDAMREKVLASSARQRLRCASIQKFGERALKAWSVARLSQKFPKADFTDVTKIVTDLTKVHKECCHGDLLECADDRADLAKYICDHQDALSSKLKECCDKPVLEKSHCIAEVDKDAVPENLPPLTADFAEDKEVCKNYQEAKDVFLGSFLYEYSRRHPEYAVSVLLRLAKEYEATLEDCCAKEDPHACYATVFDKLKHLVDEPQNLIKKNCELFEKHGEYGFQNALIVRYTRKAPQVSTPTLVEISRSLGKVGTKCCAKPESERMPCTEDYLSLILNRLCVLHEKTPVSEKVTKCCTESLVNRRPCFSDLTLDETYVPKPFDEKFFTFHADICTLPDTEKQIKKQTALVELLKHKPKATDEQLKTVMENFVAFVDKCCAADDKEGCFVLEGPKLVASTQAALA

bovine albumin [7] = biological target: T9, bovine albumin (bovine, UniProt P02769 25-607); assay: ELISA on coated albumin
T9 sequence (P02769 25-607 limits assumed): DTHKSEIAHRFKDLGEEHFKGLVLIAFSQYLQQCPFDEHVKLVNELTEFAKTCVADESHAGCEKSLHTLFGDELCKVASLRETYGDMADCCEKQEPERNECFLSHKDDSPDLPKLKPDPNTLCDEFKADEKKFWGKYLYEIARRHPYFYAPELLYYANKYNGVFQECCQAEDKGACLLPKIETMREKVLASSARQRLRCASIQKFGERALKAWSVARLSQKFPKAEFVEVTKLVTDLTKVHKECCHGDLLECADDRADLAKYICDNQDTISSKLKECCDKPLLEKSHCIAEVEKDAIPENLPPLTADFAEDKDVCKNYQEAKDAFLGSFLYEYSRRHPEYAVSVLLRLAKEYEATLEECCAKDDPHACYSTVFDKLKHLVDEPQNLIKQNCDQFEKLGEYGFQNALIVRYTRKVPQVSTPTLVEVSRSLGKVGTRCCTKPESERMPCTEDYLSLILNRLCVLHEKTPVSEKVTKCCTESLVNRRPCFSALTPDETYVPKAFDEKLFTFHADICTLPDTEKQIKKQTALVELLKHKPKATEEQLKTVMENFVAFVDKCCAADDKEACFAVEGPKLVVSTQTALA

chicken ovalbumin [8] = biological target: T10, chicken ovalbumin (chicken, UniProt P01012 2-386); assay: ELISA on coated albumin
T10 construct: also called Chicken Alb
T10 sequence (looked up): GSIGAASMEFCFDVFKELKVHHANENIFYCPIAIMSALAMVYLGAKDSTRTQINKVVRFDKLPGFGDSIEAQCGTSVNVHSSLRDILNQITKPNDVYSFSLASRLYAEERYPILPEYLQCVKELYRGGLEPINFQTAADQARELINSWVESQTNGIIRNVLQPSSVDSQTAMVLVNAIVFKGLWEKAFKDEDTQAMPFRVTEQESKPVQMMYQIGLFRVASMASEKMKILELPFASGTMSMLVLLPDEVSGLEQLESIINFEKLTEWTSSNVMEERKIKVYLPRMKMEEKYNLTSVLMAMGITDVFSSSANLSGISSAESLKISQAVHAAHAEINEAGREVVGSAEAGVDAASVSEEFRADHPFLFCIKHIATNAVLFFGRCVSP

horse albumin [9] = biological target: T11, horse albumin (horse, UniProt P35747 25-607); assay: ELISA on coated albumin
T11 construct: also called Equine albumin
T11 sequence (P35747 25-607 limits assumed): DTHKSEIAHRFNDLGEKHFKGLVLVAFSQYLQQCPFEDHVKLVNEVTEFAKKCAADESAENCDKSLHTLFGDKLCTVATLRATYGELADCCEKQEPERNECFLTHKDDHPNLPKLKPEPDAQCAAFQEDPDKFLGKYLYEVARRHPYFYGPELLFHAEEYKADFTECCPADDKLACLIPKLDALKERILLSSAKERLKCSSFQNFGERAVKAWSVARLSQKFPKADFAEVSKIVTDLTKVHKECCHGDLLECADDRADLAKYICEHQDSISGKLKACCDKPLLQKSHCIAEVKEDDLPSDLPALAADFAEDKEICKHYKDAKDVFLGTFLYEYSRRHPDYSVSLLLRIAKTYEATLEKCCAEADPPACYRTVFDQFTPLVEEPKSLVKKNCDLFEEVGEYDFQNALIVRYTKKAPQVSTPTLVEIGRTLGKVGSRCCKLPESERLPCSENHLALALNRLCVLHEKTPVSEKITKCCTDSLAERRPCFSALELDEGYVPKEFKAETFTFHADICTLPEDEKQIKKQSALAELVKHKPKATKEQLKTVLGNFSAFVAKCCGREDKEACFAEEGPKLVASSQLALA

dog albumin [10] = biological target: T12, dog albumin (dog, UniProt P49822 25-608); assay: ELISA on coated albumin
T12 construct: also called Canine albumin

cat albumin [11] = biological target: T13, cat albumin (cat, UniProt P49064 25-608); assay: ELISA on cat albumin captured from serum
T13 construct: also called Feline albumin

mouse albumin [12] = biological target: T5, mouse albumin; assay: ELISA; A450 below 0.2 at highest SDA concentration
swine albumin [13] = biological target: T6, swine albumin; assay: ELISA; A450 below 0.2 at highest SDA concentration
cat albumin [14] = biological target: T13, cat albumin; assay: ELISA; A450 below 0.2 at highest SDA concentration
human albumin [15] = biological target: T7, human albumin; assay: ELISA; A450 below 0.2 at highest SDA concentration
sheep albumin [16] = biological target: T8, sheep albumin; assay: ELISA; A450 below 0.2 at highest SDA concentration
bovine albumin [17] = biological target: T9, bovine albumin; assay: ELISA; A450 below 0.2 at highest SDA concentration
chicken ovalbumin [18] = biological target: T10, chicken ovalbumin; assay: ELISA; A450 below 0.2 at highest SDA concentration
horse albumin [19] = biological target: T11, horse albumin; assay: ELISA; A450 below 0.2 at highest SDA concentration
dog albumin [20] = biological target: T12, dog albumin; assay: ELISA; A450 below 0.2 at highest SDA concentration
[21] = biological target: T14, Tetanus neurotoxin (TeNT), authentic tetanus holotoxin (Clostridium tetani, UniProt P04958 2-1315)
T14 sequence (P04958 2-457 limits assumed, chain 1 of 2): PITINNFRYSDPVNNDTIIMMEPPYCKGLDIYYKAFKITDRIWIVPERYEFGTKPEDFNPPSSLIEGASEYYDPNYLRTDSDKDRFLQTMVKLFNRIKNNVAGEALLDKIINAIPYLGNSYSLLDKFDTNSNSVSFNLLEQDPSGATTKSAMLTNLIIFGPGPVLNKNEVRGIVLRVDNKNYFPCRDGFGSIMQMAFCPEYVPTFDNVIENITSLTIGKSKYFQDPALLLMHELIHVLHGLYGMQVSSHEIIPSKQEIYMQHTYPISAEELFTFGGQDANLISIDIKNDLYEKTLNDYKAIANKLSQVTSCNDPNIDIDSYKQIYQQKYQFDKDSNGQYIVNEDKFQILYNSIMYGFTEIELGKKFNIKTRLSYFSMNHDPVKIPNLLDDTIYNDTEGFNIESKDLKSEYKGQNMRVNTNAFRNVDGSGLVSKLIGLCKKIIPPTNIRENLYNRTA
T14 sequence (P04958 458-1315 limits assumed, chain 2 of 2): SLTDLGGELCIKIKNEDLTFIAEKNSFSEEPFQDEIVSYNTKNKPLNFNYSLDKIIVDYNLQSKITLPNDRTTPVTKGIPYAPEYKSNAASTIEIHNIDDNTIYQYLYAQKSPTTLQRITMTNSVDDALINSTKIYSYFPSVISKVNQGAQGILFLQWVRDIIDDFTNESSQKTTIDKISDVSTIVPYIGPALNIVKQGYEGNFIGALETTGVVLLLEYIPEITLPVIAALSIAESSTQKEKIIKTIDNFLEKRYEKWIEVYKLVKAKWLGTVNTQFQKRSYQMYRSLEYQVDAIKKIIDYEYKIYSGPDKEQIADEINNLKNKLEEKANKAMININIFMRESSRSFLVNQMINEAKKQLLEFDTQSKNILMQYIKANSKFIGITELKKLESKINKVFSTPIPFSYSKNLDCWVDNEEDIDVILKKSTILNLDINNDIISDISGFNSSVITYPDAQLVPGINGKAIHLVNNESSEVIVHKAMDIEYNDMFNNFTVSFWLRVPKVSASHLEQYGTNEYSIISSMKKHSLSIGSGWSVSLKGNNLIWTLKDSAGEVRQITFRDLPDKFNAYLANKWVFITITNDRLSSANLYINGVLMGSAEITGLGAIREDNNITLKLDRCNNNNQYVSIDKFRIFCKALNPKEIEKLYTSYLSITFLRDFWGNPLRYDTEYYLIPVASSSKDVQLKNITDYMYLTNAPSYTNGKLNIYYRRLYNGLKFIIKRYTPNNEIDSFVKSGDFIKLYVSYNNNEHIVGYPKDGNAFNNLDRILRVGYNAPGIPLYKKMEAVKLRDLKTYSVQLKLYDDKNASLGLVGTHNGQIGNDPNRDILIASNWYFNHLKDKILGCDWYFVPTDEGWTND

[22] = biological target: T14, Tetanus neurotoxin (TeNT), authentic …; remark: listed apart in the source
Horse albumin [23] = biological target: T15, Horse albumin (horse, UniProt P35747 25-607); assay: BLI (Octet Red96), biotinylated albumin on SA sensor, SDA as analyte
T15 construct: also called Equine albumin; Equine Alb

Human albumin [24] = biological target: Human albumin (human, UniProt P02768 25-609); assay: as above
Dog albumin [25] = biological target: T16, Dog albumin (dog, UniProt P49822 25-608); assay: BLI (Octet Red96), biotinylated SDA on SA sensor, albumin as analyte
T16 construct: also called Canine albumin; Canine Alb

dog serum albumin [26] = biological target: T17, dog serum albumin (dog, UniProt P49822 25-608); assay: ELISA, E. coli supernatant
T17 construct: mature; also called dog Alb; Canine albumin

human serum albumin [27] = biological target: T1, human serum albumin; assay: ELISA, E. coli supernatant
horse serum albumin = biological target: T18, horse serum albumin (horse, UniProt P35747 25-607); assay: ELISA, coated albumin, E. coli supernatant
T18 construct: mature; also called horse Alb; Equine albumin

dog serum albumin [28] = biological target: T17, dog serum albumin; assay: ELISA, coated albumin, E. coli supernatant
human serum albumin [29] = biological target: T1, human serum albumin; assay: ELISA, coated albumin, E. coli supernatant
[30] = biological target: T19, tetanus neurotoxin (TeNT), authentic tetanus holotoxin (Clostridium tetani, UniProt P04958 2-1315); assay: GT1b-TeNT inhibition ELISA
T19 sequence (P04958 2-457 limits assumed, chain 1 of 2): as the sequence (P04958 2-457 limits assumed, chain 1 of 2) above
T19 sequence (P04958 458-1315 limits assumed, chain 2 of 2): as the sequence (P04958 458-1315 limits assumed, chain 2 of 2) above

[31] = biological target: T19, tetanus neurotoxin (TeNT), authentic …; assay: GT1b-TeNT inhibition ELISA; remark: listed apart in the source
[32] = biological target: horse albumin (horse Alb) (horse, UniProt P35747 25-607); assay: BLI ([…] (0.11 nm), […] (0.01 nm)
Sequence of horse albumin (horse Alb) (P35747 25-607 limits assumed): as the sequence (P35747 25-607 limits assumed) above

[33] = biological target: T19, tetanus neurotoxin (TeNT), authentic …; assay: ELISA: directly coated TeNT, anti-his6 PO
[34] = biological target: T19, tetanus neurotoxin (TeNT), authentic …; assay: ELISA: directly coated TeNT, anti-his6 PO; remark: listed apart in the source
[35] = biological target: T19, tetanus neurotoxin (TeNT), authentic …; assay: ELISA: directly coated TeNT, goat anti-llama Ig PO
[36] = biological target: T19, tetanus neurotoxin (TeNT), authentic …; assay: ELISA: directly coated TeNT, goat anti-llama Ig PO; remark: listed apart in the source
[37] = biological target: T19, tetanus neurotoxin (TeNT), authentic …; assay: BLI (Octet Red96): biotinylated SDA on SA sensor, TeNT as analyte
[38] = biological target: T19, tetanus neurotoxin (TeNT), authentic …; assay: bridging ELISA: coated TeNT, SDA, biotinylated TeNT, StrepPO (bivalent binding)
[39] = biological target: T19, tetanus neurotoxin (TeNT), authentic …; assay: as above; remark: listed apart in the source

B1: SVA06L (VHH)
VHH: QVQLQESGGRLVQAEDSLRLSCAASGRTFVSYDMGWFRQAPGKEREFVAAINWRGYTTDYVDSVKGRFFISRDIAKSTVYLQMNNLKPEDTAVYYCAARQMSGSSRYSPPGRVGYDFWGQGTQVTVSS
notes: yeast-produced
B1: no binding (tested: 1 µg/ml) (human serum albumin [1]); no binding (tested: 1 µg/ml) (sheep serum albumin); no binding (tested: 1 µg/ml) (bovine serum albumin). B1: no binding (tested: 1 µg/ml) (chicken ovalbumin [2]).

B2: SVT06L (VHH)
VHH: QVQLQESGGGSVQAGGSLRLSCTASELSYDDYTIAWFRRAAGEGRVEDGEGVASITKSYDRAYDNKINYGHSVKGRFTISRDNAKNTVYLQMTDLLPSDTAVYYCALDITPPGGVGASLTEGFLFDYWGQGTQVTVSS
B2 was tested, and the “SDA Effective Concentration resulting in A450 nm = 0.2” value (from here on “SDA Effective Concentration resulting”) (mouse albumin [3]) was over 1000 ng/mL, the “maximal absorbance value at 450 nm” value (mouse albumin [3]) was 0.073 A450 and the “SDA Effective Concentration resulting” value (swine albumin [4]) was over 1000 ng/mL. The “maximal absorbance value at 450 nm” value (swine albumin [4]) was 0.08 A450, the “SDA Effective Concentration resulting” value (human albumin [5]) was over 1000 ng/mL and the “maximal absorbance value at 450 nm” value (human albumin [5]) was 0.065 A450. For the same binder, the “SDA Effective Concentration resulting” value (sheep albumin [6]) was over 1000 ng/mL, the “maximal absorbance value at 450 nm” value (sheep albumin [6]) was 0.06 A450 and the “SDA Effective Concentration resulting” value (bovine albumin [7]) was over 1000 ng/mL. The “maximal absorbance value at 450 nm” value (bovine albumin [7]) was 0.051 A450, the “SDA Effective Concentration resulting” value (chicken ovalbumin [8]) was over 1000 ng/mL and the “maximal absorbance value at 450 nm” value (chicken ovalbumin [8]) was 0.057 A450. For the same binder, the “SDA Effective Concentration resulting” value (horse albumin [9]) was over 1000 ng/mL, the “maximal absorbance value at 450 nm” value (horse albumin [9]) was 0.056 A450 and the “SDA Effective Concentration resulting” value (dog albumin [10]) was over 1000 ng/mL. For the same binder, the “maximal absorbance value at 450 nm” value (dog albumin [10]) was 0.053 A450, the “maximal absorbance value at 450 nm” value (cat albumin [11]) was 0.099 A450 and the binding result (mouse albumin [12]) was “no binding (tested: 1000 ng/ml)”. B2: no binding (tested: 1000 ng/ml) (swine albumin [13]); no binding (tested: 1000 ng/ml) (cat albumin [14]); no binding (tested: 1000 ng/ml) (human albumin [15]). B2: no binding (tested: 1000 ng/ml) (sheep albumin [16]); no binding (tested: 1000 ng/ml) (bovine albumin [17]); no binding (tested: 1000 ng/ml) (chicken ovalbumin [18]). B2: no binding (tested: 1000 ng/ml) (horse albumin [19]); no binding (tested: 1000 ng/ml) (dog albumin [20]).

B3: SVT15-3FW4M-GS3-SVT06-GS2-SVG13M5-H6 (bispecific antibody)
chain: QVQLQESGGGLVQTGGSLRLSCRASGRAFANYHFGWFRQAPGKDREFVASISWKGGSTYYANFALGRFTSSVDRAESSVYLQMSGLTPEDTATYYCAAHDGGDWNYHTGMDYWGQGTQVTVSSGGGGSGGGGSGGGGSQVQLQESGGGSVQAGGSLRLSCTASELSYDDYTIAWFRRAAGEGRVEDGEGVASITKSYDRAYDNKINYGHSVKGRFTISRDNAKNTVYLQMTDLLPSDTAVYYCALDITPPGGVGASLTEGFLFDYWGQGTQVTVSSGGGGSGGGSEVQLVESGGGLVQPGGSLRLSCEASGFTFDDYGMSWVRQAPGKGLEWVSSLTPNGGSTYYADSVKGRFTISRDNAKNTLYLQMNSLKPEDTALYYCAKNSYYGAMDYRGQGTQVTVSSHHHHHH
Work on B3 yielded a Kd [21] of under 0.41 pM, a koff [21] of under 1.99e-07 s⁻¹ and a kon [21] of 484000 M⁻¹ s⁻¹. It also gave a Kd [22] of 22.9 pM, a koff [22] of 2.73e-05 s⁻¹ and a kon [22] of 1.19e+06 M⁻¹ s⁻¹. B3: no binding (tested: 100 nM) (Horse albumin [23]); no binding (tested: 100 nM) (Human albumin [24]); no binding (tested: 16-500 nM) (Dog albumin [25]).

B4: SVA07 (VHH, not shown: large carriers)
VHH: QVQLQQSGGGLVQAGDSLRLSCAASGRAFNYYTMGWFRQAPGKEREFVAKIYWDGGSTIYADSVKGRFTISIDNAKNTVYLQMNSLKPEDTAVYYCAADPSFYPFRPKYWGQGTQVTVSS
With B4 the binding result (dog serum albumin [26]) was “no binding”, the binding result (human serum albumin [27]) was “no binding” and the “absorbance at 450 nm” value (horse serum albumin) was 1.46 A450. The “absorbance at 450 nm” value (dog serum albumin [28]) was 0.059 A450 and the “absorbance at 450 nm” value (human serum albumin [29]) was 0.062 A450.

B5: SVT16L (VHH)
VHH: QVQLQESGGGSVQAGDSLRLSCAASGRTISNYAMGWFRQAPGKQREFVAAISRSDNTYYTDSVKGRFTISRDNAKNTLYLQMNSLKPEETAVYYCAADPNLMYESKWKYRALEAWGQGTLVTVSS
B5 was tested, and the “minimal absorbance value (GT1b-TeNT inhibition)” value [30] was 0.18 A450, the “Effective SDA Concentration at A450 0.56” value [31] was 21 ng/mL and the binding result [32] was “no binding (tested: 100 nM)”. For the same binder, the maximal absorbance value [33] was 1.56 A450, the “Effective SDA Concentration at A450 0.15” value [34] was 1.4 ng/mL and the maximal absorbance value [35] was 0.44 A450. The “Effective SDA Concentration at A450 0.15” value [36] was 5 ng/mL, the Kd [37] was 339 pM and the koff [37] was 0.000311 s⁻¹. The kon [37] was 916000 M⁻¹ s⁻¹, the maximal absorbance value [38] was 0.18 A450 and the “Effective SDA Concentration at A450 0.3” value [39] was over 1000 ng/mL.
